Data as given in patent US20210147486A1 (VIB VZW, published 2021).

Key:
[1] = molecular target: T1, CsgG Y51A/F56I/N91R/K94Q/R97W-del(V105-I107) pore containing the C terminal strep tag (Escherichia coli, UniProt P0AEA2 16-277); test: pore 5; complex made by incubating pore and peptide; DNA translocation, signal:noise
T1 construct: F561 read as F56I; also called Y51A/F561/N91R/K94Q/R97W-del(V105-I107) (so in the source); not shown: C-terminal Strep tag
T1 chain: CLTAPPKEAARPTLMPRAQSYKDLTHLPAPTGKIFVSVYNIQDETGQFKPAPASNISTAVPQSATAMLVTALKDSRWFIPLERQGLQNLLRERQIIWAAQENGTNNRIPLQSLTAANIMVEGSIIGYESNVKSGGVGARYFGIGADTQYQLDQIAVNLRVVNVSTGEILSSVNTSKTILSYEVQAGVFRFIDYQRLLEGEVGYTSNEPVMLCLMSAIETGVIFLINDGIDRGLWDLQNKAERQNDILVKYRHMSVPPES

[2] = molecular target: T2, CsgG Y51A/F56V/N91R/K94Q/R97W-del(V105-I107) pore (Escherichia coli, UniProt P0AEA2 16-277); test: pore 6; complex made by incubating pore and peptide; DNA translocation, signal:noise
T2 chain: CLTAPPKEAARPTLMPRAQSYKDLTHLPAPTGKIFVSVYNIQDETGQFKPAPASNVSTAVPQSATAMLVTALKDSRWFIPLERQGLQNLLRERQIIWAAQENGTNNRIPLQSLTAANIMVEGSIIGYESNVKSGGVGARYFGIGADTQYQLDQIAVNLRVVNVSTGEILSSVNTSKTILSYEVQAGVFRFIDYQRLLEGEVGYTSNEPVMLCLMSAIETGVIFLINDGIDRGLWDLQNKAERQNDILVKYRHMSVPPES

[3] = molecular target: T3, CsgG Y51A/N55V/F56Q/N91R/K94Q/R97W-del(V105-I107) pore containing the C terminal strep tag (Escherichia coli, UniProt P0AEA2 16-277); test: reconstitution of purified pore with synthetic peptide; SDS-PAGE after heating
T3 construct: also called Y51A/F56Q/N55V/N91R/K94Q/R97W-del(V105-I107); not shown: C-terminal Strep tag
T3 chain: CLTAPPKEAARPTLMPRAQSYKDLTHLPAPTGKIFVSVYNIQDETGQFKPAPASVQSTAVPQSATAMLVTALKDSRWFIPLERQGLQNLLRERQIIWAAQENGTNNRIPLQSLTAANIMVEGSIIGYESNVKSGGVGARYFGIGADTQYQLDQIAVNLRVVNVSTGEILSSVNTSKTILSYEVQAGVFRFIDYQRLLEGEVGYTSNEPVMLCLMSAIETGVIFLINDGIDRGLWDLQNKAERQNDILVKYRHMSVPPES

[4] = molecular target: T4, CsgG Y51A/N55I/F56Q/N91R/K94Q/R97W-del(V105-I107) pore containing the C terminal strep tag (Escherichia coli, UniProt P0AEA2 16-277); test: pore 2; complex made by incubating pore and peptide; DNA translocation, signal:noise
T4 construct: N551 read as N55I; also called Y51A/N551/F56Q/N91R/K94Q/R97W-del(V105-I107) (so in the source); not shown: C-terminal Strep tag
T4 chain: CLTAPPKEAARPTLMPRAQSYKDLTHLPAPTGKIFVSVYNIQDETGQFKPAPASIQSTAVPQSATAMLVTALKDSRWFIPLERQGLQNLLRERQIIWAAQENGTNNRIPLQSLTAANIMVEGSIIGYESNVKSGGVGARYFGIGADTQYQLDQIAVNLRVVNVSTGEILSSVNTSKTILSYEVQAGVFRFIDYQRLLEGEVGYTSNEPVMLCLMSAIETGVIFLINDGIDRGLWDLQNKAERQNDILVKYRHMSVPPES

[5] = molecular target: T5, CsgG Y51S/N55A/F56Q/N91R/K94Q/R97W-del(V105-I107) pore (Escherichia coli, UniProt P0AEA2 16-277); test: pore 7; complex made by incubating pore and peptide; DNA translocation, signal:noise
T5 chain: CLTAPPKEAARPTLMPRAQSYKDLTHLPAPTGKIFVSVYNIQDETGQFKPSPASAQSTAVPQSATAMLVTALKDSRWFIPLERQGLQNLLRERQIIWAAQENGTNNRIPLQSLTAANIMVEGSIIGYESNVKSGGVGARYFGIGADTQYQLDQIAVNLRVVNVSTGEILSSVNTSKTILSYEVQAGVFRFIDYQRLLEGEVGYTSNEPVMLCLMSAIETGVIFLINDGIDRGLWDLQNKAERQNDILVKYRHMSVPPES

[6] = molecular target: T6, CsgG Y51A/F56A/N91R/K94Q/R97W-del(V105-I107) pore containing the C terminal strep tag (Escherichia coli, UniProt P0AEA2 16-277); test: pore 4; complex made by incubating pore and peptide; DNA translocation, signal:noise
T6 construct: not shown: C-terminal Strep tag
T6 chain: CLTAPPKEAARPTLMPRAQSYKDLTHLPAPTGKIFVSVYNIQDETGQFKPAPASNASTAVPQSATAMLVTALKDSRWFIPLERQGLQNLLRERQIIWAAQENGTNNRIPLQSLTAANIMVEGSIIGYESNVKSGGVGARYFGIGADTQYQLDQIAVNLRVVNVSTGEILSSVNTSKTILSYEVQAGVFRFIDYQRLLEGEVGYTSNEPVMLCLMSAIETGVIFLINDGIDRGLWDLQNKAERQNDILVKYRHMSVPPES

[7] = molecular target: T7, CsgG Y51A/F56Q/N91R/K94Q/R97W-del(V105-I107) pore containing the C terminal strep tag (Escherichia coli, UniProt P0AEA2 16-277); test: pore 1; complex made by incubating pore and peptide; DNA translocation, signal:noise
T7 construct: not shown: C-terminal Strep tag
T7 chain: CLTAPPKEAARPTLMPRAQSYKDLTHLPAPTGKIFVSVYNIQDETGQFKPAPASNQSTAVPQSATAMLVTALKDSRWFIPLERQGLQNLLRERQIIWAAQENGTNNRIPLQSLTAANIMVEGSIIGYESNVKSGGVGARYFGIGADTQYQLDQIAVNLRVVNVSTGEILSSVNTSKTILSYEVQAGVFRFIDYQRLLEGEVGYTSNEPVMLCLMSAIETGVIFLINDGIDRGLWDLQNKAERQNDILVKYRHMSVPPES

[8] = molecular target: T8, CsgG Y51S/N55V/F56Q/N91R/K94Q/R97W-del(V105-I107) pore containing the C terminal strep tag (Escherichia coli, UniProt P0AEA2 16-277); test: pore 8; complex made by incubating pore and peptide; DNA translocation, signal:noise
T8 construct: not shown: C-terminal Strep tag
T8 chain: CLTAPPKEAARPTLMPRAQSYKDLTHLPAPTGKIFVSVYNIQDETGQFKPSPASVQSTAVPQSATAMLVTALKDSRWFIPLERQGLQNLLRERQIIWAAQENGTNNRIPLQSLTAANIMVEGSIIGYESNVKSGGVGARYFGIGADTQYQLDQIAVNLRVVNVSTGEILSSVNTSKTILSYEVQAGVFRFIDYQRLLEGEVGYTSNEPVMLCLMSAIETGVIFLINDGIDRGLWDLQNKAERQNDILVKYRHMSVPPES

[9] = molecular target: T9, CsgG Y51T/N55V/F56Q/N91R/K94Q/R97W-del(V105-I107) pore containing the C terminal strep tag (Escherichia coli, UniProt P0AEA2 16-277); test: pore 9; complex made by incubating pore and peptide; DNA translocation, signal:noise
T9 construct: not shown: C-terminal Strep tag
T9 chain: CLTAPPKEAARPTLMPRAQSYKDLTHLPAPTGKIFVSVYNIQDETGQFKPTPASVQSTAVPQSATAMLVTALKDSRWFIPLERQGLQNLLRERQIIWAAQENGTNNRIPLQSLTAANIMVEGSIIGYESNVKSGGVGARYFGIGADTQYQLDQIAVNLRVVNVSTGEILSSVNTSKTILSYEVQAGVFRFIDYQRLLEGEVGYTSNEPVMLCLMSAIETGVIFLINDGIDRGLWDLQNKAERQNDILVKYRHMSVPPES

Measured: binding result

GTMTFQFRNPNFGGNPNNGAFLLNSAQAQNSYKDP [CsgF-(1-35) synthetic peptide]
binds: all assays above
